Experimental findings from PMC11182496, “Dissecting positive selection events and immunological drives during the evolution of adeno-associated virus lineages” (PLOS Pathogens, 2024) are described below.

The target of assay [1] is AAV2-G548 capsid (adeno-associated virus 2).
Assay [2] addresses AAV2-E548 capsid (wild-type AAV2 capsid) (Adeno-associated virus 2, wild type …, UniProt P03135). In words: cell-based or functional assay.
Assay [3] concerns the target AAV2-G548 capsid (adeno-associated virus 2). As to the kind of experiment: ELISA; plates coated with 10^9 vector genomes of AAV variants in 0.1 M sodium bicarbonate buffer pH 9.6 overnight at 4°C; antibody serially diluted in PBS with 1% BSA, 37°C for 1.5 hours; anti-mouse IgG-HRP, OD450; EC50 from a sigmoidal fit. Background: In an ELISA, binding on a coated surface is turned into a signal by an enzyme label.

Sequence of AAV2-E548 capsid (wild-type AAV2 capsid) (P03135 whole entry, looked up, the tested form may be a part): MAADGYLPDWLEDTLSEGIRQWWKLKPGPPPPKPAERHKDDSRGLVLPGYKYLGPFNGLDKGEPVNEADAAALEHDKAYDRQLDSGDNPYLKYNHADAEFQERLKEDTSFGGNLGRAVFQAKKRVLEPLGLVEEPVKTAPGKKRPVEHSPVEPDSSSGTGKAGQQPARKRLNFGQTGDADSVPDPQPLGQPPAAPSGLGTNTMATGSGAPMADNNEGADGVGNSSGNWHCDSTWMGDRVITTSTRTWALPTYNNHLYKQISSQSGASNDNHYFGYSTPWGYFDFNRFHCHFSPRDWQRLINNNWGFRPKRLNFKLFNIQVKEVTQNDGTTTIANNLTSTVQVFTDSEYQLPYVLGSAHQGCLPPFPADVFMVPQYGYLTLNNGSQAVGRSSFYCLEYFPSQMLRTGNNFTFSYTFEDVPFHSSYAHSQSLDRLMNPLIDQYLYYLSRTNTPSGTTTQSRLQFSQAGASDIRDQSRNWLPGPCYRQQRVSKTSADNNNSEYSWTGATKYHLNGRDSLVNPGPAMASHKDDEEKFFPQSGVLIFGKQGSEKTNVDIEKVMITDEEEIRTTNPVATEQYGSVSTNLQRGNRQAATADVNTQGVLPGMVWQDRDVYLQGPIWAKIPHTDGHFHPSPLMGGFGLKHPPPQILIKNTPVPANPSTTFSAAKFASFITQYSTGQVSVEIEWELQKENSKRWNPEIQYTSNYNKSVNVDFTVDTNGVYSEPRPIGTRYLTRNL

B1: mouse monoclonal antibody A20 (antibody, V domains shown)
VH: DVQLQESGPDLVKPSQSLSLTCTVTGYSITSGYTWHWIRQFPGNKQEWMGYIHFSGYTNYNPSLKSRVSITRDTSKNQFFLHLNSVTTEDTATYYCARGDYGYEWFTYWGQGTLVTVSA
VL: DIQMTQSSSSFSVSLGDRVTITCKASEDIHNRLAWYKQKPGNAPRLLISGATSLETGVPSRFSGSGSGKDYTLSITSLQNEDVATYYCQQYWIGPFTFGSGTNLEIK
In the case of B1, the neutralization of the lacZ AAV vector's transduction of 293 cells (β-galactosidase assay), average IC50 amounted to 0.201 µg/mL in assay [1] and 0.2 µg/mL in assay [2]. In assay [3], the OD450 at the highest A20 concentration (10 μg/ml) was found to be 0.132 OD450.
